Changes are numbered by the printed parent chain. No end group written: not given here.
T1: sSortilin S316E mutant (Homo sapiens, UniProt Q99523, S316E)
T1 construct: His6 (C); made in house; host or cells: CHO cells
T1 sequence (Q99523 78-755 S316E): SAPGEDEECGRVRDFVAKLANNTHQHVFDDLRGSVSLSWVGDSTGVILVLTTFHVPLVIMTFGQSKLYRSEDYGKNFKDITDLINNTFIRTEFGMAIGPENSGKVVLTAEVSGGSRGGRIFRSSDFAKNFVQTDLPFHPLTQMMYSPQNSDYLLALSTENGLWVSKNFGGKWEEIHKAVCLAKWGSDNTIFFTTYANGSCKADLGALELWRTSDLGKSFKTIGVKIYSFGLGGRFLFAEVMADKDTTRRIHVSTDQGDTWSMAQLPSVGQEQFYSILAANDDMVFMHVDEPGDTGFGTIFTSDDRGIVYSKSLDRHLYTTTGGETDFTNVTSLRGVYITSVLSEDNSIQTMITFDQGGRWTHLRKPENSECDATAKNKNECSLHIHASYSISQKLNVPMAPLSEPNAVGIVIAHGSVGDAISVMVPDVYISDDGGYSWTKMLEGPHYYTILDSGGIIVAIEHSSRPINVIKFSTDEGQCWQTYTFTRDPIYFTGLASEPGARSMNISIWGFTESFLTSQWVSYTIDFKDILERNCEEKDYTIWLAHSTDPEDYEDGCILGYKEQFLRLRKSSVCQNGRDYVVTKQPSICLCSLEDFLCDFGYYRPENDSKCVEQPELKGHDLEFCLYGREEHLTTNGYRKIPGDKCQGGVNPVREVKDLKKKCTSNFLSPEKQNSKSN

T2: immobilized sSortilin (Homo sapiens, UniProt Q99523)
T2 construct: His6 (C); made in house; host or cells: CHO-K1
T2 sequence (Q99523 78-755): T1 sequence (Q99523 78-755 S316E) with E239S

T3: sSortilin S316E mutant (human, UniProt Q99523 78-755)
T3 construct: those of wt sSortilin are used
T3 sequence: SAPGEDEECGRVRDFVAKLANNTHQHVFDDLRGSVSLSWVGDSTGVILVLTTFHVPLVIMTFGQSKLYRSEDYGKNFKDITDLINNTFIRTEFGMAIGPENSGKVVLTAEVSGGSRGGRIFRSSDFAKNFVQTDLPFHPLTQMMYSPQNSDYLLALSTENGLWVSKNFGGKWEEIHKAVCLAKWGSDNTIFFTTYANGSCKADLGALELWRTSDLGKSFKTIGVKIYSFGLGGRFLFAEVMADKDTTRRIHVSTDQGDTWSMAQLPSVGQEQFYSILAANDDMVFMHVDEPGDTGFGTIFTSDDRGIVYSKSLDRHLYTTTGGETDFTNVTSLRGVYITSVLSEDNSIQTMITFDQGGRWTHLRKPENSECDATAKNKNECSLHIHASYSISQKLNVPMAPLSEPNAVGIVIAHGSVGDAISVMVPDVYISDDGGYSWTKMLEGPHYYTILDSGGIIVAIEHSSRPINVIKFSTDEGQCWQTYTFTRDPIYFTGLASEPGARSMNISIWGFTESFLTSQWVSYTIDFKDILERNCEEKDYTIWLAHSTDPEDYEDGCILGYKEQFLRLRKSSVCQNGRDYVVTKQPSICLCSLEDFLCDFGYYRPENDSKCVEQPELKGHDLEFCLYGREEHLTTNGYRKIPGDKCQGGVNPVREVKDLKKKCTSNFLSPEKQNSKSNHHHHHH

T4: Soluble Sortilin (sSortilin), luminal domain of human Sortilin fused C-terminally to His6 (human, UniProt Q99523 78-755)
T4 construct: Expressed in CHO-K1 cells; 1; also called wtSortilin; wt sSortilin
T4 sequence: T3 sequence with E239S

B1: BDNF: Mature BDNF (SEQ ID NO. 7) purchased from R&D Systems (protein, listed as Homo sapiens)
chain: MTILFLTMVISYFGCMKAAPMKEANIRGQGGLAYPGVRTHGTLESVNGPKAGSGLTSLADTFEHVIEELLDEDQKVRPNEENNKDADLYTSRVMLSSQVPLEPPLLFLLEEYKNYLDAANMSMRVRRHSDPARRGELSVCDSISEWVTAADKKTAVDMSGGTVTVLEKVPVSKGQLKQYFYETKCNPMGYTKEGCRGIDKRHWNSQCRTTQSYVRALTMDSKKRIGWRFIRIDTSCVCTLTIKRGR
modifications: SIGNAL (1)..(18) Signal peptide of BDNF
B2: GST-tagged Sortilin propeptide (GST-Sort-pro) (other)
chain: QDRLDAPPPPAAPLPRWSGPIGVSWGLRAAAAGGAFPRGGRWRR
modifications: also: fused to GST, order and linker not given here
notes: the construct is 'as previously described (5)'; also called Sortilin propeptide fused to GST; not shown: glutathione S-transferase (GST) tag
B3: propeptide of Nerve Growth Factor (NGFpro), E. coli expressed, His6 tag removed by TEV (ligand)
chain: EPHSESNVPAGHTIPQVHWTKLQHSLDTALRRARSAPAAAIAARVAGQTRNITVDPRLFKKRRLRSPRVLFSTQPPREAADTQDLDFEVGGAAPFNRTHRSKR
notes: also called NGF propeptide; pro-domain of Nerve Growth Factor
B4: NGFpro: propeptide of Nerve Growth Factor, amino acid residues 19 to 121 of SEQ ID NO 6 (protein)
chain: B3 chain
modifications: left off: a dimerising Fc or GST

How the values were obtained:
sSortilin S316E mutant [1] = molecular target: T1, sSortilin S316E mutant; assay: Surface plasmon resonance: ligand binding to purified S316E mutant sSortilin compared with wt sSortilin; conditions: compared with wtSortilin, SPR
Method: (§1) Surface plasmon resonance (SPR) measurements were performed on a BIAcore 2000 instrument (Biacore Sweden) equipped with CM5 sensor chips maintained at 20° C. A continuous flow of HBS buffer (10 mM HEPES pH 7.4, 3.4 mM EDTA, 150 mM NaCl, 0.005% surfactant P20) passing over the sensor surface was maintained at 5 μl/min. […] A sortilin solution (320 μl, 5 μg/ml in 10 mM sodium acetate pH 4.0) was then injected over flow cells 1 and 2 at a flow rate of 15 μl/min. Remaining binding sites in all three flow cells were blocked by injection (5 μl/min) of 70 μl of 1 M ethanolamine pH 8.5. […] Screening of the samples was performed by injecting aliquots of 50 μl, at concentrations of 0.1-8 μM, through all flow cells with a flow rate of 5 μl/min. Unless otherwise stated, the samples were dissolved in 10 mM HEPES pH 7.4, 150 mM NaCl, 1.5 mM CaCl2, 1 mM EGTA, 0.005% surfactant P20. Sample buffer was also used as running buffer. The BIAcore response is expressed in relative response units (RU), i.e. the difference in response between the immobilized protein flow cell and the corresponding control flow cell (activated and blocked but without protein). Regeneration of the sensor chip after each cycle of analysis was performed by injecting 20 μl of 10 mM glycine/HCl pH 4.0, 500 mM NaCl, 20 mM EDTA and 0.005% surfactant P20. For calciumfree conditions, HBS containing 20 mM EDTA was used as sample as well as running buffer.

immobilized sSortilin = molecular target: T2, immobilized sSortilin; assay: Surface plasmon resonance: inhibition of ligand binding to immobilized sSortilin by Neurotensin derived peptides; conditions: for inhibition of Sortilin's binding of its own propeptide (Sort-pro): GST-Sort-pro binding to immobilized sSortilin, FIG. 3A+B
Method: as §1

sSortilin S316E mutant [2] = molecular target: T3, sSortilin S316E mutant; assay: SPR, immobilised S316E sSortilin
Method: as §1, with “For calciumfree conditions, HBS containing 20 mM EDTA was used as sample as well as running buffer.” left out

[3] = molecular target: T4, Soluble Sortilin (sSortilin), luminal …; assay: SPR (BIAcore 3000), immobilised sSortilin
Method: All measurements were performed on a BIAcore 3000 instrument (Biacore Sweden) maintained at 20° C. A continuous flow of buffer F (10 mM HEPES pH=7.4, 150 mM (NH₄)₂SO₄, 1.5 mM CaCl₂, 1.5 mM EGTA and 0.005% Tween-20) was passed over the CM5 chip sensor surface at 5 μl/min.

Row | Molecule | binding to S316E mutant sSortilin (sSortilin S316E mutant [1]) | inhibition of Sortilin's binding of its own propeptide (Sort-pro) (immobilized sSortilin; SPR) | other results
1 | Sort-pro: Sortilin's own propeptide (amino acid residues 34-77 of SEQ ID NO. 1), used fused to GST (QDRLDAPPPPAAPLPRWSGPIGVSWGLRAAAAGGAFPRGGRWRR; also: fused to GST) | no binding | – | –
2 | Tyr-Ile-Leu [Tyr11-Ile-Leu13] | – | full inhibition | affinity for Sortilin (summary statement) (immobilized sSortilin): high affinity; inhibition of binding of the prodomain of NGF to sSortilin (immobilized sSortilin; GST-tagged propeptide of NGF, SPR, FIG. 3C): hampers binding; inhibition of binding of RAP to sSortilin (immobilized sSortilin; SPR, FIG. 3D): hampers binding
3 | Arg9-Pro-Tyr-Ile-Leu13 [reference compound] | – | equally effective | –
4 | Arg8-Arg-Pro-Tyr-Ile-Leu13-NH2 [reference compound] | – | fails to inhibit | –
5 | B1 | did bind | – | –
6 | B2 | – | – | binding result (sSortilin S316E mutant [2]): no binding
7 | B3 | – | – | Kd [3]: ~10 nM
8 | B4 | did bind | – | –
